Assay results: US20250019457A1 (IBIO, published 2025)
Residue numbers refer to the chain shown, from its start.

T1: mouse TROP2 (purified recombinant antigen, Acro Biosystems Cat #TR2-M52H6) (mouse, UniProt Q8BGV3 25-270)
T1 construct: Bought recombinant protein; also called msTROP2
T1 sequence: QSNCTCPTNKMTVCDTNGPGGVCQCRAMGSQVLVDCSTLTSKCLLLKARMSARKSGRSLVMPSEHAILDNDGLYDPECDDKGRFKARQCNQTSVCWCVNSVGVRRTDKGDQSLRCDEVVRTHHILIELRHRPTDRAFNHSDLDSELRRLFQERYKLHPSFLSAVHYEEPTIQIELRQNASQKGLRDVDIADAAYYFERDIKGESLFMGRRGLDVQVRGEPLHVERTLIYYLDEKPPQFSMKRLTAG

T2: human EpCAM (purified recombinant antigen, Acro Biosystems Cat #EPM-H5223) (human, UniProt P16422 24-265)
T2 construct: Bought recombinant protein
T2 sequence: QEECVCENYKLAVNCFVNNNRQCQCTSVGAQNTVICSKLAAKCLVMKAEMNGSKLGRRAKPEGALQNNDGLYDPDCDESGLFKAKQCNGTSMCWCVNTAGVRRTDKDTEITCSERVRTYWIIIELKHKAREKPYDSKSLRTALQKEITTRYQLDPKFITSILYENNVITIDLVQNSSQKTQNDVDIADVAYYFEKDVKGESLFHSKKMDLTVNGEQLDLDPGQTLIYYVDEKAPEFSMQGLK

T3: human TROP2 (purified recombinant antigen, Acro Biosystems Cat #TR2-H5223) (human, UniProt P09758 27-274)
T3 construct: Bought recombinant protein; also called huTROP2
T3 sequence: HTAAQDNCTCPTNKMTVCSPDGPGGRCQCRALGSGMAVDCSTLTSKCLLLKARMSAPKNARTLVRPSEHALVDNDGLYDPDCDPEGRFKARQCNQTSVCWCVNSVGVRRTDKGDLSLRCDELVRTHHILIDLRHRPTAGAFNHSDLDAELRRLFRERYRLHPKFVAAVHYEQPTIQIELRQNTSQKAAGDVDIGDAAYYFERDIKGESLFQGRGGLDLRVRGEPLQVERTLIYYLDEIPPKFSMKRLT

T4: cynomolgus/rhesus TROP2 (purified recombinant antigen, Acro Biosystems Cat #TR2-R52H3) (cynomolgus/rhesus, UniProt P09758 27-274 (human entry))
T4 construct: Bought recombinant protein; also called cyTROP2; cyno/rhesus TROP2
T4 chain: T3 sequence with M36V, S67N, I204V

T5: human Trop2 on cells (FaDu cells, endogenous; ExpiCHO cells overexpressing human Trop2) (human, UniProt P09758 27-323)
T5 construct: Cell-surface form
T5 sequence: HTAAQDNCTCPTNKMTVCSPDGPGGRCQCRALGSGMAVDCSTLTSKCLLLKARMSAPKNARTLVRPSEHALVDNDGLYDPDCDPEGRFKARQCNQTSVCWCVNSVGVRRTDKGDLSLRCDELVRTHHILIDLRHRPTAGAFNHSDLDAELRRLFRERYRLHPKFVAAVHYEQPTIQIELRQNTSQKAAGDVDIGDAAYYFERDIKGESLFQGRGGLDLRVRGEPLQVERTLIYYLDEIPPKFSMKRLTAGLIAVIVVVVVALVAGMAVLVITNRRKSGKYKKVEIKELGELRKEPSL

T6: mouse Trop2 on ExpiCHO cells overexpressing mouse Trop2 (mouse, UniProt Q8BGV3 25-317)
T6 construct: Cell-surface form
T6 sequence: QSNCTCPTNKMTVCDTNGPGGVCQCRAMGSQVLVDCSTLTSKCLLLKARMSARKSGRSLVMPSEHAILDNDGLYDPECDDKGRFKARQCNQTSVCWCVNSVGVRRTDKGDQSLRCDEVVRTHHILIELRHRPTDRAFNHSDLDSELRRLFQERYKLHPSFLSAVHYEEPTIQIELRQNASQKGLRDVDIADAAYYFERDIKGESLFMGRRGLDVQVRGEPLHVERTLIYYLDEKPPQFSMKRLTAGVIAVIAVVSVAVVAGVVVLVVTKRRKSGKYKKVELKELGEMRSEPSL

B1: SD-025096 (antibody, V domains shown)
VH: QVQLQQSGAELVRPGASVKLSCKASGYTFTSYWINWVKQRPGQGLEWIGNIFPSGSYTNYNQKFKDRATLTVDKSSSTAFMQLSSPTSEDSAIYFCTRGSGFDYWGQGTTLTVSS
VL: DIVLTQSPATLSVTPGDSVSLSCRASQSISNNLHWYQQKSHESPRLLIKYASQSISGIPSRFSGSGSGTDFTLSINSVETEDFGMYFCQQSNSWPFTFGSGTKLEIK
notes: Mouse/human chimera; also called Human IgG1 SD-025096
B2: SD-813149 (antibody, V domains shown)
VH: EVKLDESGGGLVKPGGSLKLSCAASGFTFSSYTMSWVRQTPEKRLEWVATINSDGIYTYYPDSVKGRFTISRDNAKNTLYLQMSSLKSEDTAMYYCTRVHYYGYDAMDYWGQGTSVTVSS
VL: EIQMTQSPASLSASVGETVTITCRASENIYSYLAWYQQKQGKSPQLLVYSAKTLAEGVPSRFSGSGSGTHFSLKINSLQPEDFGSYYCQHHYGIPLTFGAGTKLELK
notes: Mouse/human chimera
B3: SD-661765 (antibody, V domains shown)
VH: QVQLVETGGDLVKPGGSLKLSCAASGFTFSTYGMSWVRQTPDKRLEWVATISSGGIYTYYSDSVKGRFTISRDNAKNTLYLQMSSLKSEDTAMYYCARDGNYLGFDFWGQGTTLTVSS
VL: DIVMTQSPASLAVSLGQRATISCRASESVESYGNSFMNWYQQKPGQPPKLLIYRASNLESGIPARFSGSGSRTDFTLTINPVEADDVATYYCQQSYEDPRTFGGGTKLEIK
notes: Mouse/human chimera
B4: SD-175533 (antibody, V domains shown)
VH: QIQLQESGPGLMKPSQSLSLTCTVTGYSITSDYAWNWIRQFPGNKLEWMGHITYSGSTSYNPSLKSRISISRDTSKNQFFLQLNSVTTGDTATYYCARGGSTLISGDFDYWGQGTTLTVSS
VL: DIVLTQSHKFMSTSVGDRVSITCKASQDVSTAVAWYQQKPGQSPKLLIYSASYRYTGVPDRFTGSGSGTDFTFTISSVQAEDLAVYYCQQHYSTPLTFGAGTKLELK
notes: Mouse/human chimera
B5: SD-071877 (antibody, V domains shown)
VH: AVTLDESGGGLQTPGGALSLVCKASGFDFSGYGMGWVRQAPGKGLEWVAGITNDGRYIGHGSAVKGRATISRDNGQSTVRLQLNNLRAEDTGTYFCTKCAYRSGCDYEAGSIDAWGHGTEVIVSS
VL: ALALTQPSSVSANLGGTVKITCSGDNNWYGWYQQKSPGSAPVTVIYYDDKRPSDIPSRFSGSRSGSTGTLTITGVQAEDEAVYFCGNRDSSAGYVGIFGAGTTLTVL
notes: Chicken/human chimera
B6: Gen 1 (antibody, V domains shown)
VH: EVQLVESGGGLVQPGGSLRLSCAASGFTFNTYAMNWVRQAPGKGLEWVGRIRSKYNNYATYYADSVKGRFTISRDDSKNTLYLQMNSLRAEDTAVYYCVRHGNFGNSYVSWFAYWGQGTLVTVSS
VL: DIQMTQSPSSLSASVGDRVTITCRSSTGAVTTSNYANWVQQKPGKAPKGLIGGTNKRAPGVPARFSGSGSGTDFTLTISSLQPEDFATYYCALWYSNLWVFGQGTKVEIK
notes: also called CD3 Gen 1; Gen1 CD3

Each binder was assayed against T1, mouse TROP2 (purified recombinant …) (assay: SPR, Carterra LSA; antibody captured on anti-human IgG, antigen injected).

Row | Binder | binding result
1 | B1 | no binding (tested: 1 µM top concentration)
2 | B2 | no binding (tested: 1 µM top concentration)
3 | B3 | no binding (tested: 1 µM top concentration)
4 | B4 | no binding (tested: 1 µM top concentration)

What follows are binders tested against T2, human EpCAM (purified recombinant …) in the same assay as above.

Row | Binder | binding result
5 | B1 | no binding (tested: 1 µM top concentration)
6 | B2 | no binding (tested: 1 µM top concentration)
7 | B5 | no binding (tested: 1 µM top concentration)
8 | B3 | no binding (tested: 1 µM top concentration)
9 | B4 | no binding (tested: 1 µM top concentration)

What follows are binders tested against T3, human TROP2 (purified recombinant …) (assay: SPR, Carterra LSA; antibody captured on anti-human IgG, antigen injected; 1:1 fit).

Row | Binder | Kd [nM] | koff [s⁻¹] | kon [M⁻¹ s⁻¹]
10 | B1 | 5.47 | 0.00165 | 301000
11 | B2 | 0.43 | 0.000163 | 377000
12 | B5 | 0.31 | 0.000143 | 457000
13 | B3 | 1.65 | 0.000574 | 348000
14 | B4 | 0.2 | 3.96e-05 | 197000

Molecular target: T3, human TROP2 (purified recombinant …)
Experiment: as above
Remark: another data set of the same source

Row | Binder | Kd [nM]
15 | B1 | 5.47
16 | B2 | 0.43
17 | B5 | 0.31
18 | B3 | 1.65
19 | B4 | 0.2

Molecular target: T4, cynomolgus/rhesus TROP2 (purified …)
Experiment: as above

Row | Binder | Kd [nM]
20 | B1 | 6.55
21 | B2 | 0.38
22 | B5 | 4.96
23 | B3 | 1.82
24 | B4 | 0.1

What follows are binders tested against T5, human Trop2 on cells (FaDu cells, …) (assay: flow cytometry on FaDu cells (endogenous human Trop2); average of n=1-3 experiments).

Row | Binder | EC50 [nM]
25 | B1 | 1.99
26 | B2 | 2.19
27 | B5 | 1.09
28 | B3 | 1.07
29 | B4 | 2.36

Each binder was assayed against T3, human TROP2 (purified recombinant …) (assay: MSD assay: biotinylated TROP2 on streptavidin plate, antibody titrated, anti-human SULFO-TAG detection).

Row | Binder | EC50 (read off the curve) [nM]
30 | B1 | ~0.2
31 | B2 | ~0.2
32 | B3 | ~0.2
33 | B4 | ~0.3

The binders below were run against T6, mouse Trop2 on ExpiCHO cells … (assay: flow cytometry on ExpiCHO cells overexpressing mouse Trop2, percent of cells bound; histogram overlay at 66.67 nM).

Row | Binder | binding result
34 | B5 | no binding (tested: 66.67 nM)

What follows are binders tested against T7, recombinant CD3ϵδ-HRP heterodimer (Acro Biosystems CDD-HR2W3) (Homo sapiens (Human), UniProt P07766 23-126; P04234 22-105, Conjugated to horseradish peroxidase (HRP). The site and chemistry are not stated and the letters do not carry it.) (assay: direct ELISA: antibody coated at 5 ug/mL, CD3ϵδ-HRP titrated (the axis is the CD3ϵδ-HRP concentration), absorbance at 450 nm).
T7 construct: Bought HRP conjugate; also called CD3ϵδ heterodimer; not shown: The HRP conjugate and any vendor tags or fusion partners on the two chains (Acro Biosystems CDD-HR2W3); copies: 1 + 1
T7 sequence (P07766 23-126 limits assumed, stated change not applied, chain 1 of 2): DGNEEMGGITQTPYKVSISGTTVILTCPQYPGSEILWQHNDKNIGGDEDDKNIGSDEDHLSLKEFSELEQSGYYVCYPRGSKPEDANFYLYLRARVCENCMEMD
T7 sequence (P04234 22-105 limits assumed, stated change not applied, chain 2 of 2): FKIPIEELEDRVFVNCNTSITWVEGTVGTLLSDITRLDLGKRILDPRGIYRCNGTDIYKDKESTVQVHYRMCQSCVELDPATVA

Row | Binder | EC50 (read off the curve) [µg/mL]
35 | B6 | ~0.04
